Experimental data: the supplement of paper PMC9732359
± gives the uncertainty stated by the source.

Assay: protein stability index of a GFP-peptide fusion (yeast GPS) (PSI 1-4); higher = more stable; sorted into four equal gates, so the index is relative within each strain
In short: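 Plasmids isolated from each sorting gate were PCR-amplified and Illumina-sequenced, and barcodes assigned the reads to strains. The gates, four of equal size, were set by GFP/Cherry fluorescence ratio on mid-log cultures in leucine-free medium. These cultures were yeast carrying a pooled library of tiled 17-residue yeast protein peptides fused downstream of GFP on a plasmid that also expresses Cherry. The protein stability index is the sum of every gate's read frequency times its gate number.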

Sequence	protein stability index (doa10∆)	protein stability index (pdr5∆)	protein stability index (san1∆)	protein stability index (ubr1∆)
FNLLILSLNKRIYDREP [YCG1]	2.75 ± 0.11	2.41 ± 0.091	2.22 ± 0.13	2.33 ± 0.045
FNPQDTEENIKGETNSE [RRP45]	3.36 ± 0.26	3.19 ± 0.14	3.22 ± 0.19	3.12 ± 0.18
FNQRDGEHEKSNILLNS [MED1]	2.4 ± 0.087	1.96 ± 0.11	2.99 ± 0.17	3.21 ± 0.11
FNRLKKQAHEKLDASKK [YIL149C/MLP2]	2.95 ± 0.086	3.08 ± 0.099	3.41 ± 0.069	3.14 ± 0.082
FNYGKLPLPPSVEWMKV [SIN4]	2.6 ± 0.11	2.93 ± 0.093	2.93 ± 0.065	2.92 ± 0.064
FPIALQWTGGRGGGHHS [FAS1]	2.52 ± 0.18	1.87 ± 0.23		
FPKIDSLAQNDCNSALD [RPN5]	2.52 ± 0.062	2.64 ± 0.049	3.03 ± 0.05	2.93 ± 0.045
FPTDLEIFQLFTNPSVD [SWI1]	2.59 ± 0.069	2.88 ± 0.078	2.67 ± 0.07	2.35 ± 0.056
FPTRLGQGYRKVGIWPY [YJL039C/NUP192]	3.49 ± 0.17	3.25 ± 0.14	2.96 ± 0.12	
FPWLNAIKYRPTSVKLL [POP3]	2.1 ± 0.038	2.19 ± 0.046	2.26 ± 0.062	1.96 ± 0.035
FQAHEITSFLLSKMENV [NAS6]	1.79 ± 0.079	1.53 ± 0.045	1.66 ± 0.094	1.69 ± 0.045
FQFKLLQSNSKLASTLE [SMC4]	2.29 ± 0.056	2.37 ± 0.042	2.42 ± 0.055	2.58 ± 0.038
FQHADNSSMRYGYWFDC [AAR2]	3.06 ± 0.11	2.77 ± 0.12	2.15 ± 0.089	3.14 ± 0.14
FQIPTNLDAAAAGTSQA [RPC10]	2.44 ± 0.14	2.83 ± 0.09	2.65 ± 0.095	2.66 ± 0.085
FRFQGGIIVAVDSRATA [PRE2]	1.45 ± 0.063	1.54 ± 0.072	1.3 ± 0.12	1.62 ± 0.078
FRRDFLLREYDILSQIL [YJL039C/NUP192]	1.81 ± 0.12	2.32 ± 0.1	2.08 ± 0.11	2.27 ± 0.06
FRTVKEMVKDRGYFITQ [RPB5]	2.52 ± 0.069	2.08 ± 0.071	1.72 ± 0.065	2.08 ± 0.041
FSDKVNALWILVDLVSH [ITC1]	1.4 ± 0.079	1.23 ± 0.051	1.35 ± 0.094	1.27 ± 0.045
FSFTEPAQKDSSVVSEP [YOR098C/NUP1]	3.02 ± 0.097	3.11 ± 0.1	2.81 ± 0.12	3.26 ± 0.094
FSIFNYFKMFPASKHDK [RPC34]	3.28 ± 0.19	1.34 ± 0.12		2.44 ± 0.2
FSKAIEWDMLNVEEEQI [BRR2]	2.71 ± 0.078	3.03 ± 0.11	2.54 ± 0.07	2.93 ± 0.06
FSKQCLISNAIYGKKTM [ECM29]	1.15 ± 0.098	1.95 ± 0.077	1.63 ± 0.14	1.82 ± 0.067
FSRFVDQFIRHVLRGVE [YCG1]	3.37 ± 0.25	1.5 ± 0.1		1.72 ± 0.16
FSTNVKDEIVLSGNSVE [RPL9A]	2.03 ± 0.13	2.18 ± 0.13	2.34 ± 0.13	2.59 ± 0.054
FTDENTIVLSLNVKCTR [RPC40]	3.44 ± 0.14	3.61 ± 0.091	2.96 ± 0.17	3.46 ± 0.091

Sequence	protein stability index (doa10∆)	protein stability index (pdr5∆)	protein stability index (san1∆)	protein stability index (ubr1∆)
FTFGLTVVQVYDNGQVF [RPP0]	1.26 ± 0.09	1.3 ± 0.1	1.36 ± 0.28	1.39 ± 0.16
FTIQSFVSSLSNTSTLK [BRR2]	1.83 ± 0.05	1.97 ± 0.041	2.01 ± 0.055	2.24 ± 0.034
FTIVSLVQLKKFSDLKF [YML103C/NUP188]	2.37 ± 0.17	2.5 ± 0.097	2.7 ± 0.1	2.06 ± 0.073
FTKPPANETDKRPTPPS [YOR098C/NUP1]	3.03 ± 0.043	3.05 ± 0.048	3.14 ± 0.039	3.15 ± 0.037
FTRPLFVLLEIEPVTKV [YCS4]	1.94 ± 0.062	2.05 ± 0.07	1.95 ± 0.081	1.97 ± 0.069
FTTLLESKQDGLSILFL [YML103C/NUP188]	2.53 ± 0.097	2.68 ± 0.12	2.56 ± 0.096	3 ± 0.14
FVAKLAAQIFGSYNAFE [COR1]	1.68 ± 0.043	1.74 ± 0.048	1.63 ± 0.081	2.13 ± 0.046
FVDDTNVYRVTVHKTFE [PRP8]	2.68 ± 0.087	2.74 ± 0.11	2.21 ± 0.096	2.52 ± 0.068
FVIPALPAAVSKSLQES [RPC82]	1.8 ± 0.1	1.69 ± 0.14	2.58 ± 0.085	2.04 ± 0.12
FVVPTFGQDVSPMINST [SNM1]	2.94 ± 0.084	2.89 ± 0.085	2.89 ± 0.056	2.84 ± 0.067
FVWLSSEENIGSGLLKL [SWI1]	3.3 ± 0.098	3.19 ± 0.09	3.28 ± 0.067	3.38 ± 0.068
FYDIRSLLERHIPRLIP [YJL039C/NUP192]	2.79 ± 0.049	2.46 ± 0.046	2.2 ± 0.048	2.77 ± 0.055
FYVPQARNVTFDSLRNF [GRR1]	2.04 ± 0.08	2.27 ± 0.075	2.52 ± 0.08	2.22 ± 0.059
GAASNRTKFVRSLVREI [RPL36A]	3.22 ± 0.27	2.59 ± 0.25	3.02 ± 0.13	3.25 ± 0.12
GAGIQIIMQADLALKMG [FAS2]	1.84 ± 0.094	2.09 ± 0.065	1.73 ± 0.071	2.03 ± 0.051
GAGSAFGFSSSGTAATG [YOR098C/NUP1]	3.47 ± 0.2	3.41 ± 0.15	3.41 ± 0.17	3.57 ± 0.14
GAHGYSGFYTFSLLDHH [PRE1]	2.94 ± 0.19	2.44 ± 0.16	2.92 ± 0.098	2.76 ± 0.12
GAHLGRFVIWTEAAFTK [RPL4A]	2.87 ± 0.21	3.04 ± 0.2		2.54 ± 0.25
GAIDEALEEAKLSDNIS [YDL116W/NUP84]	3.17 ± 0.11	3.25 ± 0.091	3.41 ± 0.07	3.3 ± 0.045
GAKPEEKKDDNSSKPAF [YJL041W/NSP1]	3.29 ± 0.12	3.38 ± 0.14	2.87 ± 0.082	2.86 ± 0.078
GAKQTQGGAMNKKSEQA [SRP72]	2.77 ± 0.067	3.07 ± 0.07	3.26 ± 0.049	3.47 ± 0.054
GALKGASDGGLYVPHSE [RPL5]	1.91 ± 0.083	1.88 ± 0.073	2.83 ± 0.088	2.67 ± 0.052
GCKNGSFTLLNQLSQTN [NUT1]	2.86 ± 0.12	3.05 ± 0.079	2.97 ± 0.095	3.22 ± 0.11
GDAAPAEEAAAEEEEES [RPP0]		3.67 ± 0.16	3.29 ± 0.13	3.44 ± 0.12
